# In the MegaScale stability set (Tsuboyama et al. 2023):
# B1: 1ZHC (parent)
# chain: HEFRDEISVLKANNPHFDKIFEKHNQLDDDIKTAEQQNASDAEVSHMKKQKLKLKDEIHSMIIEYREK
# Variants of: B1
# Test: folding stability dG (cDNA display proteolysis); higher = more stable
# Settings: PBS, room temperature
row,Variant,folding stability dG
1,I31N,-2.09 kJ/mol
2,I31C,-3.66 kJ/mol
3,I31V,-0.82 kJ/mol
4,I31D,-3.89 kJ/mol
5,I31H,-3.11 kJ/mol
6,I31L,-0.389 kJ/mol
7,E35K,4.07 kJ/mol
8,E35R,1.46 kJ/mol
9,E35S,0.678 kJ/mol
10,E35H,-2.39 kJ/mol
11,E35G,-1.81 kJ/mol
12,E35Q,4.89 kJ/mol
13,E35Y,3.74 kJ/mol
14,E35L,7 kJ/mol
15,E35W,1.69 kJ/mol
16,E35C,2.22 kJ/mol
17,E35T,0.841 kJ/mol
18,E35A,1.18 kJ/mol
19,E35F,2.07 kJ/mol
20,E35N,0.243 kJ/mol
21,E35M,6.24 kJ/mol
22,E35V,3.61 kJ/mol
23,E35I,7.01 kJ/mol
24,K32V,1.05 kJ/mol

row,Variant,folding stability dG
1,K32A,1.89 kJ/mol
2,K32D,-2.85 kJ/mol
3,K32M,1.39 kJ/mol
4,K32I,0.565 kJ/mol
5,K32Y,0.657 kJ/mol
6,K32N,1.35 kJ/mol
7,K32W,1.42 kJ/mol
8,K32R,4.93 kJ/mol
9,K32L,2.37 kJ/mol
10,K32T,0.782 kJ/mol
11,K32H,1.46 kJ/mol
12,K32Q,3.64 kJ/mol
13,K32C,0.556 kJ/mol
14,K32F,1.16 kJ/mol
15,K32S,0.715 kJ/mol
16,K32E,0.0335 kJ/mol
17,H16G,-0.623 kJ/mol
18,H16T,1.1 kJ/mol
19,H16I,2.55 kJ/mol
20,H16M,-0.423 kJ/mol
21,H16V,2.11 kJ/mol
22,H16A,1 kJ/mol
23,H16F,1.56 kJ/mol
24,H16N,-2.34 kJ/mol

row,Variant,folding stability dG
1,H16W,4.59 kJ/mol
2,H16Q,1.13 kJ/mol
3,H16D,-1.51 kJ/mol
4,H16R,2.23 kJ/mol
5,H16S,-0.276 kJ/mol
6,H16L,1.79 kJ/mol
7,H16E,1.41 kJ/mol
8,H16Y,6.41 kJ/mol
9,H16K,0.615 kJ/mol
10,H16C,3.9 kJ/mol
11,H24C,7.77 kJ/mol
12,H24K,-1.33 kJ/mol
13,H24L,7.03 kJ/mol
14,H24F,8.62 kJ/mol
15,H24V,3.93 kJ/mol
16,H24A,3.27 kJ/mol
17,H24R,-0.519 kJ/mol
18,H24Q,1.19 kJ/mol
19,H24T,-2.08 kJ/mol
20,H24M,7.27 kJ/mol
21,H24S,2.55 kJ/mol
22,H24I,5.12 kJ/mol
23,H24Y,8.97 kJ/mol
24,H24W,6.84 kJ/mol

row,Variant,folding stability dG
1,P15I,1.3 kJ/mol
2,P15A,1.85 kJ/mol
3,P15T,1.22 kJ/mol
4,P15R,0.121 kJ/mol
5,P15E,1.53 kJ/mol
6,P15M,0.293 kJ/mol
7,P15C,3.54 kJ/mol
8,P15G,0.201 kJ/mol
9,P15H,1.59 kJ/mol
10,P15L,1.41 kJ/mol
11,P15Y,-2.65 kJ/mol
12,P15S,3.44 kJ/mol
13,P15K,1.31 kJ/mol
14,P15Q,0.51 kJ/mol
15,P15D,0.452 kJ/mol
16,P15W,1.4 kJ/mol
17,P15F,-0.0544 kJ/mol
18,P15V,1.49 kJ/mol
19,P15N,0.188 kJ/mol
20,D30A,5.85 kJ/mol
21,D30V,-1.16 kJ/mol
22,D30N,1.5 kJ/mol
23,D30S,2.19 kJ/mol
24,D30G,-0.414 kJ/mol

row,Variant,folding stability dG
1,D30T,1.66 kJ/mol
2,D30K,4.19 kJ/mol
3,D30L,5.3 kJ/mol
4,D30E,3.28 kJ/mol
5,D30R,4.5 kJ/mol
6,D30I,2.98 kJ/mol
7,D30Q,5.25 kJ/mol
8,D30W,4.56 kJ/mol
9,D30C,5.05 kJ/mol
10,D30Y,3.59 kJ/mol
11,D30M,6.95 kJ/mol
12,D30F,3.42 kJ/mol
13,Q36F,3.44 kJ/mol
14,Q36E,3.78 kJ/mol
15,Q36H,-0.0126 kJ/mol
16,Q36I,1.1 kJ/mol
17,Q36G,3.69 kJ/mol
18,Q36C,2.9 kJ/mol
19,Q36A,4.21 kJ/mol
20,Q36D,2.41 kJ/mol
21,D18F,8.48 kJ/mol
22,D18S,6.54 kJ/mol
23,D18A,9.6 kJ/mol
24,D18T,5.64 kJ/mol

row,Variant,folding stability dG
1,D18N,7.27 kJ/mol
2,D18Y,8.15 kJ/mol
3,D18Q,8.15 kJ/mol
4,D18C,8.24 kJ/mol
5,D18L,10.1 kJ/mol
6,D18M,8.5 kJ/mol
7,D18V,7.02 kJ/mol
8,D18W,7.42 kJ/mol
9,D18H,6.77 kJ/mol
10,D18R,10.3 kJ/mol
11,D18I,5.98 kJ/mol
12,D18G,4.83 kJ/mol
13,D18E,5.65 kJ/mol
14,D18K,9.34 kJ/mol
15,I20M,-0.695 kJ/mol
16,I20V,1.93 kJ/mol
17,I20C,-0.255 kJ/mol
18,I20Y,-0.49 kJ/mol
19,I20T,-1.67 kJ/mol
20,I20L,3.11 kJ/mol
21,I20A,-0.665 kJ/mol
22,A34C,1.79 kJ/mol
23,A34H,-2.02 kJ/mol
24,A34Y,1.63 kJ/mol

row,Variant,folding stability dG
1,A34Q,-1.28 kJ/mol
2,A34I,-1.24 kJ/mol
3,A34W,0.9 kJ/mol
4,A34F,2.2 kJ/mol
5,A34K,2.42 kJ/mol
6,A34L,5.08 kJ/mol
7,A34V,-3.61 kJ/mol
8,A34M,3.59 kJ/mol
9,A34R,2.77 kJ/mol
10,K19S,2.15 kJ/mol
11,K19F,5.73 kJ/mol
12,K19G,0.0167 kJ/mol
13,K19L,2.15 kJ/mol
14,K19I,2.6 kJ/mol
15,K19C,5.51 kJ/mol
16,K19N,2.33 kJ/mol
17,K19V,1.32 kJ/mol
18,K19Y,6.36 kJ/mol
19,K19R,4.82 kJ/mol
20,K19W,5.44 kJ/mol
21,K19A,4.74 kJ/mol
22,K19H,3.77 kJ/mol
23,K19Q,3.99 kJ/mol
24,K19D,3.44 kJ/mol

row,Variant,folding stability dG
1,K19M,3.26 kJ/mol
2,K19T,3.16 kJ/mol
3,K19E,4.61 kJ/mol
4,L27C,1.16 kJ/mol
5,L27Y,-1.3 kJ/mol
6,L27F,0.0209 kJ/mol
7,L27V,1.38 kJ/mol
8,L27I,0.544 kJ/mol
9,L27M,0.828 kJ/mol
10,L27W,-2.41 kJ/mol
11,N14E,-1 kJ/mol
12,N14S,2.26 kJ/mol
13,N14V,-0.243 kJ/mol
14,N14D,3.49 kJ/mol
15,N14F,1.66 kJ/mol
16,N14Y,4.03 kJ/mol
17,N14I,-0.322 kJ/mol
18,N14M,-3.48 kJ/mol
19,N14H,-0.556 kJ/mol
20,N14Q,-1.76 kJ/mol
21,N14L,-0.0377 kJ/mol
22,N14W,4.2 kJ/mol
23,N14A,-1.68 kJ/mol
24,D29A,6 kJ/mol

row,Variant,folding stability dG
1,D29R,6.99 kJ/mol
2,D29S,5.02 kJ/mol
3,D29L,6.52 kJ/mol
4,D29N,6.21 kJ/mol
5,D29W,5.28 kJ/mol
6,D29M,6.28 kJ/mol
7,D29Q,6.26 kJ/mol
8,D29H,6.31 kJ/mol
9,D29Y,5.23 kJ/mol
10,D29K,7.48 kJ/mol
11,D29E,5.2 kJ/mol
12,D29F,5.78 kJ/mol
13,D29G,3.23 kJ/mol
14,D29V,5.17 kJ/mol
15,D29I,6 kJ/mol
16,D29C,4.9 kJ/mol
17,D29T,2.26 kJ/mol
18,F21I,1.56 kJ/mol
19,F21W,7.51 kJ/mol
20,F21S,0.632 kJ/mol
21,F21C,2.85 kJ/mol
22,F21V,1.1 kJ/mol
23,F21T,-0.778 kJ/mol
24,F21H,-0.0711 kJ/mol

row,Variant,folding stability dG
1,F21M,1.85 kJ/mol
2,F21Y,4.01 kJ/mol
3,F21L,2.32 kJ/mol
4,N25H,2.23 kJ/mol
5,N25L,4.77 kJ/mol
6,N25Y,1.16 kJ/mol
7,N25V,1.97 kJ/mol
8,N25W,2.69 kJ/mol
9,N25R,6.64 kJ/mol
10,N25F,2.72 kJ/mol
11,N25Q,5.41 kJ/mol
12,N25M,4.14 kJ/mol
13,N25D,2.7 kJ/mol
14,N25G,-0.28 kJ/mol
15,N25E,1.84 kJ/mol
16,N25K,5.92 kJ/mol
17,N25C,5.89 kJ/mol
18,N25A,4.32 kJ/mol
19,N25I,3.08 kJ/mol
20,N25S,3.2 kJ/mol
21,N25T,2.4 kJ/mol
22,K23N,0.464 kJ/mol
23,K23Y,4.28 kJ/mol
24,K23M,6.6 kJ/mol

row,Variant,folding stability dG
1,K23R,3.9 kJ/mol
2,K23F,-0.0795 kJ/mol
3,K23L,6.47 kJ/mol
4,K23W,5.37 kJ/mol
5,K23A,3.29 kJ/mol
6,K23E,4.85 kJ/mol
7,K23C,3.71 kJ/mol
8,K23T,1.49 kJ/mol
9,K23Q,5.55 kJ/mol
10,K23S,1.42 kJ/mol
11,K23V,0.636 kJ/mol
12,K23H,1.62 kJ/mol
13,K23I,3.83 kJ/mol
14,K23D,0.611 kJ/mol
15,D28S,3.36 kJ/mol
16,D28R,4.13 kJ/mol
17,D28V,5.41 kJ/mol
18,D28A,5.72 kJ/mol
19,D28T,6.18 kJ/mol
20,D28K,1.73 kJ/mol
21,D28Y,2.34 kJ/mol
22,D28L,3.95 kJ/mol
23,D28M,5.05 kJ/mol
24,D28I,4.74 kJ/mol

row,Variant,folding stability dG
1,D28W,3.06 kJ/mol
2,D28G,3.29 kJ/mol
3,D28H,3.17 kJ/mol
4,D28Q,3.32 kJ/mol
5,D28F,1.24 kJ/mol
6,D28E,4.92 kJ/mol
7,E22M,5.32 kJ/mol
8,E22I,2.65 kJ/mol
9,E22K,6.56 kJ/mol
10,E22T,5.29 kJ/mol
11,E22G,4.1 kJ/mol
12,E22N,5.59 kJ/mol
13,E22W,1.75 kJ/mol
14,E22S,4.97 kJ/mol
15,E22H,1.64 kJ/mol
16,E22A,5.52 kJ/mol
17,E22L,4.36 kJ/mol
18,E22C,3.03 kJ/mol
19,E22Q,6.02 kJ/mol
20,E22R,6.59 kJ/mol
21,E22F,3.2 kJ/mol
22,E22Y,2.44 kJ/mol
23,E22D,0.828 kJ/mol
24,E22V,1.65 kJ/mol

row,Variant,folding stability dG
1,T33A,4.77 kJ/mol
2,T33Y,3.47 kJ/mol
3,T33C,4.13 kJ/mol
4,T33G,-0.0669 kJ/mol
5,T33W,3.95 kJ/mol
6,T33D,2.95 kJ/mol
7,T33Q,4.27 kJ/mol
8,T33I,3.57 kJ/mol
9,T33S,3.62 kJ/mol
10,T33L,4.77 kJ/mol
11,T33H,4.02 kJ/mol
12,T33V,5.45 kJ/mol
13,T33M,5.26 kJ/mol
14,T33E,1.52 kJ/mol
15,T33K,6 kJ/mol
16,T33F,4.2 kJ/mol
17,T33N,4.49 kJ/mol
18,T33R,6.5 kJ/mol
19,Q26D,0.862 kJ/mol
20,Q26K,4.48 kJ/mol
21,Q26F,-0.879 kJ/mol
22,Q26Y,-3.77 kJ/mol
23,Q26R,5.34 kJ/mol
24,Q26I,-0.105 kJ/mol

row,Variant,folding stability dG
1,Q26A,1.14 kJ/mol
2,Q26H,-0.967 kJ/mol
3,Q26L,3.12 kJ/mol
4,Q26N,0.77 kJ/mol
5,Q26M,-0.255 kJ/mol
6,Q26S,1.38 kJ/mol
7,Q26T,0.9 kJ/mol
8,Q26E,-2.14 kJ/mol
9,Q26C,-0.531 kJ/mol
10,Q26V,-0.544 kJ/mol
11,Q26W,-2.57 kJ/mol
12,N13S,3.72 kJ/mol
13,N13T,5.81 kJ/mol
14,N13W,4.43 kJ/mol
15,N13V,1.92 kJ/mol
16,N13R,4.18 kJ/mol
17,N13Y,2.66 kJ/mol
18,F17G,-3.95 kJ/mol
19,F17E,-2.35 kJ/mol
20,F17P,-2.2 kJ/mol
21,F17R,-4.1 kJ/mol
22,F17C,-1.71 kJ/mol
